The text below walks through data of the supplement of paper PMC12042874.

± gives the uncertainty stated by the source.

The data set is described as follows: amyloid nucleation score (Sup35N fusion, yeast selection) (log enrichment); library NNK2; higher = more nucleation; inactive = no reads after selection. The gist of the method: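 Nucleation score is defined as the DiMSum log enrichment of output over input reads, with centring on the mode score of non-aggregating sequences. A minimum of 100 input reads was required for each sequence. Reads came from Illumina sequencing of plasmid inserts from psi-negative yeast expressing Sup35N fused to peptides of 20 random codons, induced with 100 μM copper sulfate for 24 hours and grown 7 days at 30°C on medium lacking adenine and uracil.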

In turn, EIHGMCTLYIFNSRPYIYPG had an amyloid nucleation score of 6.594 ± 0.035.
The result for HGQISLRMWQVRR reads 5.759 ± 0.052; that for YMSFPLDVLVICLCRIVIES, 0.089 ± 1.1.
Then GFNGRALKLERARDLVCGRM, with 0.386 ± 0.29.
For the substance SIHDVVYLGPVVVAKDSSVF, the amyloid nucleation score result is “inactive”.
Then FYRGSQVMPR, with -0.647 ± 1.1; and SLWVASGQSFSDSRQRNVAG, with 2.27 ± 0.19.
In turn, LIGDSLSVVRNRNFPPARGK showed an amyloid nucleation score of -0.237 ± 1.
Then GLVGEGRACYVKHD, with 0.861 ± 0.57.
The result for APRWWFYVDSY reads 0.237 ± 1.
On to DKSCLISVMLICLL, for which the amyloid nucleation score is 5.21 ± 0.059.
Then ECCQILCGSYWYIKYLSYDC, with 1.8 ± 0.13.
The result for TVFLIDTYTYDTVFNTSRCR reads 3.76 ± 0.041; that for KNSCSMYVMMCGSQVLGLVS, 7.75 ± 0.084; that for FEVLIFVDCWFVVMGRETLN, 2.68 ± 0.15.
The result for LGNTRSIWGE reads 0.578 ± 0.27.
Take TLLSTEMHDYKLLARQRCHP: the amyloid nucleation score turned out to be 1.24 ± 0.38.
The result for SVSIPCNNCCRLLCRMFKLC reads -0.716 ± 0.28.
Then VWQFRCGERMTKCLLWGDYG, with 0.072 ± 0.31; and VDVFGVCRRSVYVA, with 0.988 ± 0.4.
The result for SCTALVKEKMRG reads 0.48 ± 0.32; that for AFEFQYFIGGFRTRIMNCVF, “inactive”.
For the substance WFSVVILLNSTMEYYQYLV, the amyloid nucleation score is -0.128 ± 0.45.
The result for WLLWS reads 0.472 ± 0.26.
The result for LLEYNIFLRSIVFDGREEWA reads 3.18 ± 0.058.
Then GKGNLQSCYEWKYKKLYVHT, with -0.248 ± 0.38; and KAKWFNFLFYNFLQYACLSQ, with 1.37 ± 0.087.
In the case of IRDFYILAYRWLSQSHVMAN, the amyloid nucleation score result was “inactive”.
The result for SATEWIISVGGRAWRF reads 2.65 ± 0.12; that for NSVCYGP, 0.899 ± 0.47; that for KCSKLRGYTCIMLSIGCLNY, 2.71 ± 0.07.
The result for CKMRFLNMWRHFLKCLTAYT reads “inactive”; that for AVPCNC, -0.216 ± 0.62; that for YKLGTRMSECLRNNVLDSSS, “inactive”.
Then TTLVSSGYKYFCDVFTGVNA, with -1.45 ± 0.63; and LEPGAFRSIVFRIND, with 0.961 ± 0.48.
Turning to WSLYLVVLAQ, the amyloid nucleation score is 0.294 ± 0.51.
For the substance LFTEISKYQVYGVYWTALFE, the amyloid nucleation score was -0.137 ± 1.1.
Then YRCVWYGFPSRSWAGSSDIL, with 0.309 ± 0.8; and MYYCLGILCGVSTRRGEMSC, with 1.17 ± 0.41; and GYINWSCDRDMFSRTTDFLG, with -0.592 ± 0.34.
Then YSVSSMVKPMIICCNSVNC, with 8.344 ± 0.051; and AMWFN, with 0.932 ± 0.47; and RGGTKRGELCDALNHQFSVL, with 0.413 ± 0.22.
The result for VGIDYV reads “inactive”.
FLLRVSSSTKTRRSSGVDL displayed an amyloid nucleation score of 3.69 ± 0.095.
The result for MLSIVNCNGSRVGYWTDS reads 5.85 ± 0.08; that for FSSFVNREKMFIHFSNVVYF, 1.44 ± 0.1; that for RFSVDRSSRELICMLGQFDN, 0.356 ± 0.38.
Then PYATNSRRNRNVYLRPHCQI, with 1.77 ± 0.12; and LPLLCFTDV, with “inactive”.
Then LPEIHLVTLC, with -0.802 ± 0.49; and MMMLLG, with 0.505 ± 0.13.
For the substance LAQPCQE, the amyloid nucleation score is -0.033 ± 0.55.
Then LCLTR, with -0.307 ± 0.63; and LYAVRSALYFCTVYFGSSNR, with 3.18 ± 0.13; and YLIAELFQIVDACLWLSSWR, with -0.328 ± 0.38.
In the case of LHIKW, the amyloid nucleation score was 5.728 ± 0.033.
The result for AEGSDGCLKLNGAITIGHMI reads “inactive”; that for FLISSMHWYCHKPCWGFLGQ, -0.569 ± 0.79.
With SFSVYRFVGTLSGYADLGLG, the amyloid nucleation score came to 0.302 ± 0.37.
Then SYYSNSLVGDFPVPISNSVM, with -0.249 ± 1.1; and ELGYCYSFGHSQFFKQSKHG, with 3.03 ± 0.071.
Take PEFGTDIPKSRRRKEGCRGG: the amyloid nucleation score came out at 0.717 ± 0.23.
Consider LGDAHALCGRLTVCRGGTGP, for which the amyloid nucleation score worked out at 3.58 ± 0.075.
The result for LRHDR reads 0.43 ± 0.32; that for YFGTLSLLKHEVA, -0.289 ± 0.3.
On to DGDNNCMCS, for which the amyloid nucleation score is 0.404 ± 0.48.
SCLLWAF showed an amyloid nucleation score of -1.54 ± 1.1.
Then RIMSCNQITNIICVL, with 4.89 ± 0.078; and GDKSIRSPLAV, with -0.087 ± 0.34; and HLSTSGYVAFLKHLTLCKVL, with -0.347 ± 1.1.
Substance LLTAFTTYYLIYHSFSRYLA displayed an amyloid nucleation score of -1.47 ± 1.1.
Then ERFHIVLHMVIDDRVSFGCV, with 2.96 ± 0.12; and GGMGHVFITCWGYVYIDYLV, with 7.207 ± 0.025; and SRTRGTLDGS, with 0.241 ± 0.36.
The substance MSTIITALEFNG displayed an amyloid nucleation score of 0.188 ± 0.62.
The result for LFYRYFLCVTRRTNEYGVL reads -1.75 ± 1.
Then AHRYGR, with 1.57 ± 0.43.
The result for SSMLANSMWRSFSVSYGTML reads 0.929 ± 0.36; that for SLGNQIQVCISLPSMPVTPW, 0.512 ± 0.66; that for PCIRPLDKVCLIFFTGIFLW, -1.47 ± 0.78.
The substance GRIVVFV gave an amyloid nucleation score of 0.538 ± 0.39.
The result for GWMHFVALKGFSNHGRAGSG reads 0.448 ± 0.57.
The result for RATISLVDMEFSLRDPQ reads “inactive”.
Turning to RVPFWFT, the amyloid nucleation score was -1.2 ± 0.49.
Consider SVFVGLRLGKAS, for which the amyloid nucleation score came to 0.11 ± 0.28.
NVAGCSWSSQLPRPTP came in with an amyloid nucleation score of 1.46 ± 0.61.
Then CNYKYSDLVFHCLPPGRGYN, with “inactive”; and GMSITPWHWFGPCISFPDIN, with -0.55 ± 0.53.
Then FQGVVSRYSYYS, with 1.81 ± 0.22; and FYLIIDPIPMDCSGIIVNCY, with “inactive”; and TFGCEPVGPVA, with 0.409 ± 0.8.
Then CQPNLWARVCLVWCYW, with 3 ± 0.094.
VQCVMSESMDELYSLVLRCP: the amyloid nucleation score is 0.998 ± 0.28.
For SVCSSRGDAMSGVLPCAGGL, the amyloid nucleation score was 0.124 ± 0.55.
The result for QDTFYEWCKNVHVLHTRFGV reads 0.905 ± 0.47; that for CLINMTIYGERWRCVNDVPN, 3.54 ± 0.052; that for YIVQWSFMVSRSQ, 1.62 ± 0.086.
The result for VLDCRFKCCNFTRDLT reads 7.67 ± 0.043; that for RFRRLSIIVILYTASRDLWR, 0.289 ± 0.41.
The result for FCSDGK reads 0.186 ± 0.3.
Consider PSVTRVLSLVILEAPNA, for which the amyloid nucleation score was determined as 2.76 ± 0.14.
Then NSGARSTSLVNVWVLYLLDR, with 6.414 ± 0.055; and NDSMDHRQSYWGLNPFVYIV, with 0.158 ± 0.65; and GMRIFNYKNRDYWMACTAMT, with “inactive”.
AHCIFVLDGAKFRLWCLGSG: the amyloid nucleation score came to 1.11 ± 0.41.
Then SDAFGRRHSSLAM, with 1.56 ± 0.14; and VSDNFTYVLVYESGTGFTVS, with “inactive”; and RRYIMQSWLHATSEFPGCDP, with 0.54 ± 0.53.
In the case of TWMSYFVHVSVGFLVYYLYI, the amyloid nucleation score is -0.919 ± 1.
The result for YNQSMYFRVLGFYTYPSDRG reads 2.32 ± 0.07; that for FHTNCYKIMMSGRHFHVSFD, 8.932 ± 0.046; that for MLWVYWLGCHVRSYNLGYLR, -0.255 ± 0.63.
Take AYIARYNPTSLNRVEYPPDD: the amyloid nucleation score came to 1.49 ± 0.58.
The result for DYSRLSLGICEVDDCTLRMV reads -0.761 ± 0.39.
Then HYFRIAIL, with -0.667 ± 0.45.
For the substance PFRGYFGVLSYAVFGEAGPV, the amyloid nucleation score was 4.4 ± 0.067.
Then RNSLKARYWWGLSGLLKVW, with -1.01 ± 0.55; and VYTWNGRSWEYWTCPTLRNP, with 0.371 ± 0.8; and VEGTPMFVWINWGVGKVGQS, with 3.42 ± 0.051.
Then LVYLELTELQLCDAFAKVKN, with 0.133 ± 0.25; and EDELSPF, with 0.453 ± 0.18.
In turn, VWDRITLFCSLLIRVHGLCT had an amyloid nucleation score of 0.269 ± 0.29.
Then TYIRDRHIVYWGHTGSFIYM, with 1.63 ± 0.18; and SGYWNGVIRTKSNNDTVYVK, with -0.395 ± 0.22; and VQGSEKYGVVLFEY, with 5.83 ± 0.094.
On to RDQRLCV, for which the amyloid nucleation score is -1.18 ± 1.1.
The result for IKHDLSTFNNFSPVSWNMVY reads -0.307 ± 0.79; that for DSIFFYTGMQTDYHAHMSPC, “inactive”.
The result for WSEVGWFIYDKFREFVFSIK reads “inactive”; that for VNYLPWLWSMCNRVH, -0.943 ± 0.61; that for VTEIFMLAL, -0.129 ± 1.1.
As for CCLENTRVLTVLVSLSMV, the amyloid nucleation score was 0.582 ± 0.35.
The result for NFNGYM reads -1.09 ± 0.3; that for RSAFHCNWLISISSGKVSHM, -0.452 ± 0.55; that for YLSKTLIAVMDFCVLDTG, -0.971 ± 0.48.
The result for ILYVACSNMRCPILFMAGA reads 2.12 ± 0.12; that for LLVSSVSMTWHGKLSHTYFK, 4.62 ± 0.059; that for CLRFC, -0.453 ± 1.1.
